Data: patent publication US20230295288A1 (TILLOTTS PHARMA, published 2023)

Assays:
TNFα [1] = target: T1, TNFα (human, UniProt P01375 77-233); experiment: cell-based or functional assay
[2] = target: T2, monomeric His-tagged human FcRn (human, UniProt P55899 24-297; P61769 21-119); experiment: SPR, pH 6.0, KD against that of Ab-wt; pH 6.0; KD ratio to Ab-wt
T2 construct: The b2m chain is an addition from general knowledge; also called hFcRn; neonatal Fc receptor
Method: (§1) SPR was performed using a Biacore 3000 instrument with CM5 sensor chips coupled with anti-TNFα IgG1 antibodies (˜500 resonance units (RU)) using amine-coupling chemistry as described by the manufacturer. The coupling was performed by injecting 2.0 ug/mL of each protein in 10 mM sodium acetate, pH 4.5, using the amine-coupling kit (GE Healthcare). […] All SPR experiments were conducted at 25° C. with a flow rate of 40 ul/min. Binding data were zero-adjusted, and reference cell value subtracted. The Langmuir 1:1 ligand binding model provided by the BlAevaluation software (version 4.1) was used to determine the binding kinetics.

[3] = target: T2, monomeric His-tagged human FcRn; experiment: SPR, pH 6.0, KD against that of infliximab; pH 6.0; KD ratio to IFX
Method: as §1

TNFα [4] = target: T1, TNFα; experiment: SPR (Biacore), antibody captured on Protein A, TNFα as analyte, single cycle kinetics, 1:1 model, 25 °C
Method: Affinity to TNFα was measured by Biacore. A CM5 chip was prepared using standard amine immobilisation Biacore procedures. Upon insertion of a CM5 chip the system was primed and then normalised with BIA-normalising solution (Biacore Preventative Maintenance Kit 2). The chip was added to the system with Phosphate Buffered Saline Tween-20 (PBS-T) running buffer; prior to immobilisation the chip surface was primed with three injections of 50 mM NaOH. Protein A was immobilised on the chip surface. For this, the protein was diluted to 5 μg/mL into 10 mM acetate buffer at pH 4.5 and injected so to generate a bound response of ˜1000 RU's in all 4 flow cells. To remove non-covalently bound material from all the chip flow cells, three 15 second 50 mM NaOH washes were performed. On the Protein A chip, antibody was captured in flow cells 2 and 4, with flow cells 1 and 3 used for reference subtraction. The trial antibodies were diluted in PBS-T to 10 nM and 2.5-7.5 uL injected to obtain 120 RU of captured antibody. […] For each single cycle analysis cycle a titration of 5 analyte concentrations were injected over the ligand and then the dissociation of the complex was measured. The surface was regenerated using glycine pH 1.7. A double referencing method was employed in which data from the ligand bound capture surface (fc 2 and 4) were subtracted from the references surfaces where no ligand was captured (fc 1 and 3 respectively). Blank injections of buffer were run every 3-4 cycles and then subtracted from analyte injection cycles, to correct for small changes in the ligand capture surface. Repeat injections of analyte at the start and end of each analytical run were used to check for sample degradation, or changes in the instrument performance. All analysis was performed at 25° C. and the sample rack was incubated at 10° C. during experimental runs. Each experiment was run at least three times. A 1-to-1 binding model was used to fit the resulting kinetic data.

CD16a(V) = target: T3, CD16a(V) (UniProt P08637 17-208); experiment: SPR (Biacore), His-tagged FcγR captured on anti-His chip, antibody as analyte, single cycle kinetics, 25 °C
T3 construct: Captured on an anti-His tag chip, so it carried a His tag; also called Fcγ receptor CD16a(V)
Method: (§2) Affinity to FcγRs was measured by Biacore. A CM5 chip was prepared using standard amine immobilisation Biacore procedures. Upon insertion of a CM5 chip the system was primed and then normalised with BIA-normalizing solution (Biacore Preventative Maintenance Kit 2). The chip was added to the system with PBS-T running buffer; prior to immobilisation the chip surface was primed with three injections of 50 mM NaOH. FcγRs were immobilised on the chip surface using a His-tag capture system. The anti-His tag chip was prepared according to the Biacore kit instructions, with ˜12000 RU's of the antibody deposited on all 4 flow cells. To remove non-covalently bound material from all the chip flow cells, three 30 second 10 mM glycine pH 1.5 washes were performed. The Fcγ receptors were diluted in PBS-T to a range of 0.5-2 μg/mL, with 2.5-5.0 μL injected onto the chip generating capture levels between 60 and 200 RU's. Antibodies were diluted into PBS-T prior to analysis. Single cycle kinetics were used to estimate the steady state affinity. For each single cycle analysis cycle a titration of 5 antibody concentrations were injected over the FcγR ligand and then the dissociation of the complex was measured. The surface was regenerated using the recommended solution, 10 mM glycine pH 1.5 for the anti-His capture surface. A double referencing method was employed in which data from the ligand bound capture surface (fc 2 and 4) were subtracted from the references surfaces where no ligand was captured (fc 1 and 3 respectively). Blank injections of buffer were run for every antibody titration cycle and then subtracted from analyte injection cycles, to correct for small changes in the ligand capture surface. All analysis was performed at 25° C. and the sample rack was incubated at 10° C. during experimental runs. Each experiment was run at least three times.

CD16a(F) = target: T4, CD16a(F) (UniProt P08637 17-208); experiment: as above
T4 construct: Captured on an anti-His tag chip, so it carried a His tag
Method: as §2

CD16b(NA2) = target: T5, CD16b(NA2) (UniProt O75015 17-200, limits assumed); experiment: as above
T5 construct: Captured on an anti-His tag chip, so it carried a His tag
Method: as §2

[5] = target: T2, monomeric His-tagged human FcRn; experiment: SPR (Biacore 3000), antibody amine-coupled, monomeric His-tagged hFcRn as analyte, pH 6.0, 1:1 Langmuir model, 25 °C; pH 6.0
Method: as §1

T3 sequence (P08637 17-208 F176V limits assumed): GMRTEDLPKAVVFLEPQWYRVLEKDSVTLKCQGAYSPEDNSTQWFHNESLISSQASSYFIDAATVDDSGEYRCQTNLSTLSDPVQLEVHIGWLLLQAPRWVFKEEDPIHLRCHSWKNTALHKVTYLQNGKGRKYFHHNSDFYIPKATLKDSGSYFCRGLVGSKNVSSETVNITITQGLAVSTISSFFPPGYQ
T5 sequence (O75015 17-200 N65S limits assumed): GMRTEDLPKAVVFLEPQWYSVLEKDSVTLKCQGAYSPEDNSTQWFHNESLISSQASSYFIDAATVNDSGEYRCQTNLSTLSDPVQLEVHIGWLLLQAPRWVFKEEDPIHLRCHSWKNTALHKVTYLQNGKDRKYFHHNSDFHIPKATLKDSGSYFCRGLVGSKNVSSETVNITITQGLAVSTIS
T1 sequence (P01375 77-233 limits assumed): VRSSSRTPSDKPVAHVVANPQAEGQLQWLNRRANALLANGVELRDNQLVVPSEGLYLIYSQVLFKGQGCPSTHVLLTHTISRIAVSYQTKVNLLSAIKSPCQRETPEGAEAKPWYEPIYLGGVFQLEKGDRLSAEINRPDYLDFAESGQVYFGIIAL
T4 sequence (P08637 17-208 limits assumed): as the sequence (P08637 17-208 F176V limits assumed) above, with V160F counted along it

Row | IC50 (read off the curve), L929 TNFα neutralisation [upper panel] (TNFα [1]) [ng/mL] | Fold change from wt [2] [fold] | Fold change from IFX [3] [fold] | Kd (TNFα [4]) [nM] | koff (TNFα [4]) [s⁻¹] | kon (TNFα [4]) [M⁻¹ s⁻¹] | Kd (CD16a(V)) [nM] | Kd (CD16a(F)) [nM] | Kd (CD16b(NA2)) [nM] | Kd [5] [nM] | IC50 (read off the curve), L929 TNFα neutralisation [lower panel] (TNFα [1]) [ng/mL] | Binder
1 | ~7 | 6.4 | 2.7 | 0.00288 | 3.04e-05 | 1.13e+07 | 68.7 | 110 | 470 | 157 | – | Ab-A-DLE-PVAΔG (antibody, human IgG1, kappa) heavy: EVQLVESGGGLVQPGGSLRLSCKASGIDFNNYGIGWVRQAPGKGLEWITYIYPGFAITNFANSVKGRFTISSDNSKNTVYLQMNSLRAEDTAVYYCARDPVYATSSGYFDLWGQGTLVTVSSASTKGPSVFPLAPSSKSTSGGTAALGCLVKDYFPEPVTVSWNSGALTSGVHTFPAVLQSSGLYSLSSVVTVPSSSLGTQTYICNVNHKPSNTKVDKKVEPKSCDKTHTCPPCPAPPVAGPDVFLFPPKPKDTLMISRTPEVTCVVVDVSHEDPEVKFNWYVDGVEVHNAKTKPREEQYNSTYRVVSVLTVLHQDWLNGKEYKCKVSNKALPLPEEKTISKAKGQPREPQVYTLPPSREEMTKNQVSLTCLVKGFYPSDIAVEWESNGQPENNYKTTPPVLDSDGSFFLYSKLTVDKSRWQQGNVFSCSVMHEALHAHYTQKSLSLSPGK light: DIQMTQSPSSLSASVGDRVTIKCQASQSIFSGLAWYQQKPGKAPKLLIYGASKLASGVPSRFSGSGSGTEFTLTISGLQPADFATYYCQSYYYSSSSSDGSYAFGGGTKLTVLGRTVAAPSVFIFPPSDEQLKSGTASVVCLLNNFYPREAKVQWKVDNALQSGNSQESVTEQDSKDSTYSLSSTLTLSKADYEKHKVYACEVTHQGLSSPVTKSFNRGEC
2 | – | – | – | 0.00413 | 3.45e-05 | 8.37e+06 | 184 | – | > 3000 | 1000 | ~7 | Ab-wt (antibody, human IgG1, kappa, Human IgG1 anti-TNFα antibody with a wild-type Fc region; also called parent antibody; wild-type antibody) heavy: not shown light: DIQMTQSPSSLSASVGDRVTIKCQASQSIFSGLAWYQQKPGKAPKLLIYGASKLASGVPSRFSGSGSGTEFTLTISGLQPADFATYYCQSYYYSSSSSDGSYAFGGGTKLTVLGRTVAAPSVFIFPPSDEQLKSGTASVVCLLNNFYPREAKVQWKVDNALQSGNSQESVTEQDSKDSTYSLSSTLTLSKADYEKHKVYACEVTHQGLSSPVTKSFNRGEC
3 | – | 11.1 | 4.7 | 0.00157 | 1.28e-05 | 8.14e+06 | 117 | – | 1030 | 90 | ~6 | Ab-YTE-DLE-PVAΔG (antibody, human IgG1, kappa) heavy: EVQLVESGGGLVQPGGSLRLSCKASGIDFNNYGIGWVRQAPGKGLEWITYIYPGFAITNFANSVKGRFTISSDNSKNTVYLQMNSLRAEDTAVYYCARDPVYATSSGYFDLWGQGTLVTVSSASTKGPSVFPLAPSSKSTSGGTAALGCLVKDYFPEPVTVSWNSGALTSGVHTFPAVLQSSGLYSLSSVVTVPSSSLGTQTYICNVNHKPSNTKVDKKVEPKSCDKTHTCPPCPAPPVAGPDVFLFPPKPKDTLYITREPEVTCVVVDVSHEDPEVKFNWYVDGVEVHNAKTKPREEQYNSTYRVVSVLTVLHQDWLNGKEYKCKVSNKALPLPEEKTISKAKGQPREPQVYTLPPSREEMTKNQVSLTCLVKGFYPSDIAVEWESNGQPENNYKTTPPVLDSDGSFFLYSKLTVDKSRWQQGNVFSCSVMHEALHNHYTQKSLSLSPGK light: DIQMTQSPSSLSASVGDRVTIKCQASQSIFSGLAWYQQKPGKAPKLLIYGASKLASGVPSRFSGSGSGTEFTLTISGLQPADFATYYCQSYYYSSSSSDGSYAFGGGTKLTVLGRTVAAPSVFIFPPSDEQLKSGTASVVCLLNNFYPREAKVQWKVDNALQSGNSQESVTEQDSKDSTYSLSSTLTLSKADYEKHKVYACEVTHQGLSSPVTKSFNRGEC
4 | – | – | – | 0.00251 | 2.19e-05 | 9.16e+06 | 260 | – | 5180 | – | ~9 | Ab-A-AEA-PVAΔG (antibody, human IgG1, kappa) heavy: EVQLVESGGGLVQPGGSLRLSCKASGIDFNNYGIGWVRQAPGKGLEWITYIYPGFAITNFANSVKGRFTISSDNSKNTVYLQMNSLRAEDTAVYYCARDPVYATSSGYFDLWGQGTLVTVSSASTKGPSVFPLAPSSKSTSGGTAALGCLVKDYFPEPVTVSWNSGALTSGVHTFPAVLQSSGLYSLSSVVTVPSSSLGTQTYICNVNHKPSNTKVDKKVEPKSCDKTHTCPPCPAPPVAGPSVFLFPPKPKDTLMISRTPEVTCVVVDVSHEDPEVKFNWYVDGVEVHNAKTKPREEQYNSTYRVVSVLTVLHQDWLNGKEYKCKVSNAALPAPEAKTISKAKGQPREPQVYTLPPSREEMTKNQVSLTCLVKGFYPSDIAVEWESNGQPENNYKTTPPVLDSDGSFFLYSKLTVDKSRWQQGNVFSCSVMHEALHAHYTQKSLSLSPGK light: DIQMTQSPSSLSASVGDRVTIKCQASQSIFSGLAWYQQKPGKAPKLLIYGASKLASGVPSRFSGSGSGTEFTLTISGLQPADFATYYCQSYYYSSSSSDGSYAFGGGTKLTVLGRTVAAPSVFIFPPSDEQLKSGTASVVCLLNNFYPREAKVQWKVDNALQSGNSQESVTEQDSKDSTYSLSSTLTLSKADYEKHKVYACEVTHQGLSSPVTKSFNRGEC
